These results are taken from article PMC8424217 (The Journal of Biological Chemistry, 2021).

* marks the point of attachment. Palmitoyl = CCCCCCCCCCCCCCCC(=O)*

Experiment [1] deals with T1, rat thoracic aorta rings (Rattus norvegicus, UniProt P49684).
T1 sequence (P49684 1-386): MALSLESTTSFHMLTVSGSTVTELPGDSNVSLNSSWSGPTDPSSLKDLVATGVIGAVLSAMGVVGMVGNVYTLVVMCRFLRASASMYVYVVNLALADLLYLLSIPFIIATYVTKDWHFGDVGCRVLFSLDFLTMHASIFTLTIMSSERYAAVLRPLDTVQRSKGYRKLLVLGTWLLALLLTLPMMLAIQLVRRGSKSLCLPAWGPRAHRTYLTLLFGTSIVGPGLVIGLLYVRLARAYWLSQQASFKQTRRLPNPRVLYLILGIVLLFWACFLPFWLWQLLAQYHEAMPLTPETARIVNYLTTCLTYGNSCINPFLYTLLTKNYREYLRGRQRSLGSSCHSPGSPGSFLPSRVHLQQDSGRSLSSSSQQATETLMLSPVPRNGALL
Put plainly: Rat aortic ring contraction (agonist). The note with it: mean ± SEM. As for the experimental part: (§1) Each replicate (n) was conducted on tissue obtained from at least three different animals. Data represent mean ± SEM.
(§2) Adult male Sprague-Dawley rats (Charles-River) weighing 250–300 g were housed in cages under controlled illumination (12:12 h light–dark cycle), humidity, and temperature (21–23 °C) and had free access to tap water and rat chow. All experimental procedures were performed in accordance with regulations and ethical guidelines from the Canadian Council for the Care of Laboratory Animals and received approvals of the institutional animal care and use committee of the Institut National de la Recherche Scientifique—Centre Armand-Frappier Santé Biotechnologie. As previously described ([17], [18]), the thoracic aorta was cleared of surrounding tissue and then excised from the aortic arch to the diaphragm. Conjunctive tissues were next removed from the thoracic aorta and the vessels were divided into five rings of 4 mm. The endothelium of each aortic ring was removed by gently rubbing the vessel intimal surface. Aortic rings were then placed in a 5 ml organ bath filled with oxygenated normal Krebs–Henseleit buffer. Eighty microliters of a 2.5 M potassium chloride solution (40 mM final concentration) was used to evaluate maximal contractile responses of each vessel. […] Cumulative concentration–response curves to synthetic peptides were obtained by increasing the concentration of each peptide in the remaining organ chambers (10^−11–10^−5 M).

Experiment [2] has as its target T1, rat thoracic aorta rings. The experiment in a line: Modulation of URP-mediated rat aortic ring contraction. The note with it: URP alone, percentage of KCl (40 mM) contraction divided by tissue response to URP (10^−6 M), mean ± SEM, n = 22, read-out: URP-mediated contraction Emax, control (no pretreatment). Here is the method: as §1, §2
Experiment [3] concerns the target T2, human urotensin II receptor, on CHO-K1 cells stably expressing it (human) (UniProt Q9UKP6).
T2 sequence: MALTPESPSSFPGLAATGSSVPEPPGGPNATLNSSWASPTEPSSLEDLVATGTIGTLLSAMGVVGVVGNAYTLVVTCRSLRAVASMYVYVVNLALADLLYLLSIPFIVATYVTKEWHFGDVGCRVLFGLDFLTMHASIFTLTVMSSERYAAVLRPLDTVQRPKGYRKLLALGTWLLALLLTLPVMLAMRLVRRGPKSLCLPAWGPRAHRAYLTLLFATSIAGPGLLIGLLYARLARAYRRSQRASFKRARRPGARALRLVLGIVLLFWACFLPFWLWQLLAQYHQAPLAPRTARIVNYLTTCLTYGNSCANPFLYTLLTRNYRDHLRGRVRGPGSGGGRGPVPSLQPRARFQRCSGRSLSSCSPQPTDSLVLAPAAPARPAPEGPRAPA

In experiment [4] the target is T3, human urotensin II receptor, on HEK 293 cells stably expressing it (human) (UniProt Q9UKP6).
T3 sequence: T2 sequence

In experiment [5] the target is T2, human urotensin II receptor, on CHO-K1 cells stably expressing it (human). The source holds these as a separate data set.
[6] abbreviates: scale: % of the activation induced by hUII.

As to `CC(C)[C@H](NC(=O)[C@@H]1CSSC[C@H](NC(=O)[C@H](C)N)C(=O)N[C@@H](Cc2ccccc2)C(=O)N[C@@H](Cc2c[nH]c3ccccc23)C(=O)N[C@@H](CCCCN)C(=O)N[C@@H](Cc2ccc(O)cc2)C(=O)N1)C(=O)O` [URP, urotensin II-related peptide, reference compound], the “contraction pEC50” value on rat thoracic aorta rings [1] (n = 22 (hUII, URP), n = 5 (pepducins)) stood at 8.10 ± 0.06. For the same molecule, the Emax on rat thoracic aorta rings [1] (percentage of contraction induced by 40 mM KCl, n = 22) stood at 108 ± 3%; at rat thoracic aorta rings [2], 105 ± 3%.

B1: [Trp^1, Leu^2]hUT-Pep3 (peptide)
peptide: Palmitoyl-WLSQRASFKRARR-NH2
SMILES: CCCCCCCCCCCCCCCC(=O)N[C@@H](Cc1c[nH]c2ccccc12)C(=O)N[C@@H](CC(C)C)C(=O)N[C@@H](CO)C(=O)N[C@@H](CCC(N)=O)C(=O)N[C@@H](CCCNC(=N)N)C(=O)N[C@@H](C)C(=O)N[C@@H](CO)C(=O)N[C@@H](Cc1ccccc1)C(=O)N[C@@H](CCCCN)C(=O)N[C@@H](CCCNC(=N)N)C(=O)N[C@@H](C)C(=O)N[C@@H](CCCNC(=N)N)C(=O)N[C@@H](CCCNC(=N)N)C(N)=O
Turning to B1, in experiment [3], the IP1 production (IP-One terbium immunoassay), CHO-hUT cells, 40 min; efficacy at 10^-5 M (% of the hUII maximum effect) stood at 60 and the IP1 production (IP-One terbium immunoassay), CHO-hUT cells, 40 min; pEC50 was < 6 -log EC50. Besides, in experiment [4], the G13 activation (BRET biosensor), HEK 293-hUT cells; pEC50 was 6.51 -log EC50; the Gi activation (BRET biosensor), HEK 293-hUT cells; pEC50 is 10.4 -log EC50; the Gq activation (BRET biosensor), HEK 293-hUT cells; pEC50 was 8.34 -log EC50; the β-arrestin 1 conformational change (BRET biosensor), HEK 293-hUT cells; pEC50 is 8.08 -log EC50. Further, the β-arrestin 2 conformational change (BRET biosensor), HEK 293-hUT cells; pEC50 in experiment [4] is 7.74 -log EC50. In experiment [4] (setting [6]), the G12 activation (BRET biosensor), HEK 293-hUT cells; maximum efficacy at 10^-6 M came out at 5; the G13 activation (BRET biosensor), HEK 293-hUT cells; Emax came out at 185; the Gi activation (BRET biosensor), HEK 293-hUT cells; Emax was 97; the Gq activation (BRET biosensor), HEK 293-hUT cells; Emax worked out at 29. Also, in experiment [4] (setting [6]), the β-arrestin 1 conformational change (BRET biosensor), HEK 293-hUT cells; Emax is 18 and the β-arrestin 2 conformational change (BRET biosensor), HEK 293-hUT cells; Emax came to 19. In experiment [5], the ERK1/2 phosphorylation (western blot), CHO-hUT cells, 5 min; Emax (% of the hUII maximum effect) is 56 and the ERK1/2 phosphorylation (western blot), CHO-hUT cells, 5 min; pEC50 was 6.7 -log EC50.

B2: hUT-Pep2 (peptide)
peptide: Palmitoyl-RPLDTVQRPKGY-NH2
SMILES: CCCCCCCCCCCCCCCC(=O)N[C@@H](CCCNC(=N)N)C(=O)N1CCC[C@H]1C(=O)N[C@@H](CC(C)C)C(=O)N[C@@H](CC(=O)O)C(=O)N[C@H](C(=O)N[C@H](C(=O)N[C@@H](CCC(N)=O)C(=O)N[C@@H](CCCNC(=N)N)C(=O)N1CCC[C@H]1C(=O)N[C@@H](CCCCN)C(=O)NCC(=O)N[C@@H](Cc1ccc(O)cc1)C(N)=O)C(C)C)[C@@H](C)O
Turning to B2, in experiment [3], the IP1 production (IP-One terbium immunoassay), CHO-hUT cells, 40 min; efficacy at 10^-5 M (% of the hUII maximum effect) came to 35 and the IP1 production (IP-One terbium immunoassay), CHO-hUT cells, 40 min; pEC50 was < 6 -log EC50. Moreover, in experiment [4], the G13 activation (BRET biosensor), HEK 293-hUT cells; pEC50 is 6.33 -log EC50; the Gi activation (BRET biosensor), HEK 293-hUT cells; pEC50 was 10.1 -log EC50; the Gq activation (BRET biosensor), HEK 293-hUT cells; pEC50 is 7.31 -log EC50. In experiment [4] (setting [6]), this molecule yielded a G13 activation (BRET biosensor), HEK 293-hUT cells; Emax of 154; a Gi activation (BRET biosensor), HEK 293-hUT cells; Emax of 96; a Gq activation (BRET biosensor), HEK 293-hUT cells; Emax of 9; a β-arrestin 2 conformational change (BRET biosensor), HEK 293-hUT cells; maximum efficacy at 10^-6 M of 15. In addition, in experiment [5], the ERK1/2 phosphorylation (western blot), CHO-hUT cells, 5 min; Emax (% of the hUII maximum effect) amounted to 34 and the ERK1/2 phosphorylation (western blot), CHO-hUT cells, 5 min; pEC50 was 7.26 -log EC50.

The Emax is the maximal effect, on the per cent scale that the assay sets.
